Source: IntAct's records for PubMed 11018022

B1: Insulin receptor substrate 1 (Rattus norvegicus (Rat)), P35570 (parent)
chain: MASPPDTDGFSDVRKVGYLRKPKSMHKRFFVLRAASEAGGPARLEYYENEKKWRHKSSAPKRSIPLESCFNINKRADSKNKHLVALYTRDEHFAIAADSEAEQDSWYQALLQLHNRAKAHHDGAGGGCGGSCSGSSGVGEAGEDLSYDTGPGPAFKEVWQVILKPKGLGQTKNLIGIYRLCLTSKTISFVKLNSEAAAVVLQLMNIRRCGHSENFFFIEVGRSAVTGPGEFWMQVDDSVVAQNMHETILEAMRAMSDEFRPRTKSQSSSSCSNPISVPLRRHHLNNPPPSQVGLTRRSRTESITATSPASMVGGKPGSFRVRASSDGEGTMSRPASVDGSPVSPSTNRTHAHRHRGSSRLHPPLNHSRSIPMPSSRCSPSATSPVSLSSSSTSGHGSTSDCLFPRRSSASVSGSPSDGGFISSDEYGSSPCDFRSSFRSVTPDSLGHTPPARGEEELSNYICMGGKGASTLTAPNGHYILSRGGNGHRYIPGATMGTSPALTGDEAAGAADLDNRFRKRTHSAGTSPTISHQKTPSQSSVVSIEEYTEMMPAAYPPGGGSGGRLPGYRHSAFVPTHSYPEEGLEMHHLERRGGHHRPDSSNLHTDDGYMPMSPGVAPVPSNRKGNGDYMPMSPKSVSAPQQIINPIRRHPQRVDPNGYMMMSPSGSCSPDIGGGSCSSSSISAAPSGSSYGKPWTNGVGGHHTHALPHAKPPVESGGGKLLPCTGDYMNMSPVGDSNTSSPSECYYGPEDPQHKPVLSYYSLPRSFKHTQRPGEPEEGARHQHLRLSSSSGRLRYTATAEDSSSSTSSDSLGGGYCGARPESSVTHPHHHALQPHLPRKVDTAAQTNSRLARPTRLSLGDPKASTLPRVREQQQQQQQQQQSSLHPPEPKSPGEYVNIEFGSGQPGYLAGPATSRSSPSVRCLPQLHPAPREETGSEEYMNMDLGPGRRATWQESGGVELGRVGPAPPGAASICRPTRSVPNSRGDYMTMQIGCPRQSYVDTSPVAPVSYADMRTGIAAEKVSLPRTTGAAPPPSSTASASASVTPQGAAEQAAHSSLLGGPQGPGGMSAFTRVNLSPNHNQSAKVIRADTQGCRRRHSSETFSAPTRAANTVSFGAGAAGGGSGGGSEDVKRHSSASFENVWLRPGDLGGASKESAPGCGAAGGLEKSLNYIDLDLVKDVKQHPQDCPSQQQSLPPPPPHQPLGSNEGSSPRRSSEDLSTYASINFQKQPEDRQ

Variants of: B1
Settings: with phip_mouse Phip

effect of a mutation on the interaction	Variant
disrupting interaction	W106A
